Reference: patent publication EP1706427B1 (Crucell Holland B.V., dated 2011)

T1: murine CD1d (mouse, UniProt P11609 22-336)
T1 construct: whole, on cells; also called mouse thymocytes
T1 sequence (looked up): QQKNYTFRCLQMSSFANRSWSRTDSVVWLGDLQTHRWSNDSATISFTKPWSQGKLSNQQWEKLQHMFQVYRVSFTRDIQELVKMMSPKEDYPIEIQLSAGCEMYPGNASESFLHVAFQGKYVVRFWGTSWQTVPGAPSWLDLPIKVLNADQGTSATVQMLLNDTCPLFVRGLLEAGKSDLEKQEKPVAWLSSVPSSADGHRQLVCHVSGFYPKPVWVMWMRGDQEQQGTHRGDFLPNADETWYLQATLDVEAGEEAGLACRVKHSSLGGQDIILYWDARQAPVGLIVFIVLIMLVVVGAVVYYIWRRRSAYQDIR

B1: human anti-human CD1a monoclonal antibody CR2117 (antibody, human IgG1, kappa, V domains shown)
VH: EVQLVESGGGLVHPGGSLRLSCAGSGFTFSSYAMHWVRQAPGKGLEWVSAIGTGGGTYYADSVKGRFTISRDNAKNSLYLQMNSLRAEDTAVYYCARSTPWFSFDYWGQGTLVTVSS
VL: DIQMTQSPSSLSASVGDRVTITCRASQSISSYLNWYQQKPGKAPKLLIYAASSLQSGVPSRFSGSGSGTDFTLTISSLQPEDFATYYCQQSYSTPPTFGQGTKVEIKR
notes: Human IgG1 kappa made in 293T cells; Used unlabelled and biotinylated; also called 02-117
B2: human anti-human CD1a monoclonal antibody CR2118 (antibody, human IgG1, kappa, V domains shown)
VH: EVQLVESGGGLVHPGGSLRLSCAGSGFTFSSYAMHWVRQAPGKGLEWVSAISTGGGTYYADSVKGRFTISRDNAKNSLYLQMNSLRAEDTAVYYCARSAWWLSFDSWGQGTLVTVSS
VL: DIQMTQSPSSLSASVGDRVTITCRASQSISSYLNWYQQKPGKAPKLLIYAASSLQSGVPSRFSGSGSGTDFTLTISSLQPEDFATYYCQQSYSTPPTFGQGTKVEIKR
notes: Human IgG1 kappa made in 293T cells; Used unlabelled and biotinylated; also called 02-118
B3: human anti-human CD1a monoclonal antibody CR2114 (antibody, human IgG1, kappa, V domains shown)
VH: EVQLVESGGGLVQPGGSLRLSCAASGFTFSSYSMNWVRQAPGKGLEWVSYISSSSSTIYYADSVKGRFTISRDNAKNSLYLQMNSLRDEDTAVYYCAKETWWQSFDYWGQGTLVTVSS
VL: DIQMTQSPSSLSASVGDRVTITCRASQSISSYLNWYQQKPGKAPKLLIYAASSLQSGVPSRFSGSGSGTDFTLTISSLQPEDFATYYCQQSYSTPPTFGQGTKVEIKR
notes: Human IgG1 kappa made in 293T cells; Used unlabelled and biotinylated; also called 02-114
B4: human anti-human CD1a monoclonal antibody CR2113 (antibody, human IgG1, kappa, V domains shown)
VH: QVQLQESGAGLLKPSETLSLTCAVYGGSFSGYYWSWIRQPPGKGLEWIGYIYYSGSTNYNPSLKSRVTISVDTSKNQFSLKLSSVTAADTAVYYCAKAPYMMYFDSWGQGTLVTVSS
VL: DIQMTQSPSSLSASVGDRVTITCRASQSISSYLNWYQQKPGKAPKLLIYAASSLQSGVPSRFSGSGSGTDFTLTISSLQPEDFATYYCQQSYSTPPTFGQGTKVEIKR
notes: Human IgG1 kappa made in 293T cells, purified over protein A and size exclusion; Used unlabelled and biotinylated; also called 02-113

Assays:
[1] = target: T1, murine CD1d; test: flow cytometry on mouse thymocytes, Kolmogorov-Smirnov D-value
[2] = target: T2, murine CD1a (mouse); test: as above
T2 construct: whole, on cells; no mouse CD1a entry is known to me; also called mouse thymocytes

| Binder | D-value [1] | D-value [2] |
| --- | --- | --- |
| B1 | 0 | 0 |
| B2 | 0 | 0 |
| B3 | 0 | 0 |
| B4 | 0 | 0 |
